We go through six molecules from publication PMC8249405, “Xanthomonas effector XopR hijacks host actin cytoskeleton via complex coacervation” (Nature Communications, 2021).

Series [1] deals with G-actin (monomeric Ca2+-ATP-actin from rabbit skeleton muscle) (rabbit, UniProt P68135 1-377). As to the kind of experiment: MST; peptides serially diluted and titrated into 10 uM LatB-actin; 50 mM Tris pH 7.4, 150 mM NaCl, 0.05% Tween 20; 22 °C; called label-free in the results. The note with it: both partners purified.
Series [2] deals with F-actin (filaments assembled from rabbit skeleton muscle actin) (rabbit, UniProt P68135 1-377). Description: co-sedimentation; high speed (100,000 x g, 20 min, 25 °C); 2 uM F-actin with a range of concentrations of the MBP-msfGFP fusion; SDS-PAGE; Hill fit. Particulars: both partners purified.
Series [3] concerns the molecule itself. As to the kind of experiment: SEC; Superdex 200 Increase 10/300, 150 mM NaCl, against protein standards. For orientation: Size exclusion chromatography separates by hydrodynamic size, large species first.

B1: EHWH2 peptide (peptide)
peptide: SLRRLDLQLEEITRQCSDIQKQLFMEDREATPQEQHLLKTRAA
notes: XopR of Xcc, extended helix plus WH2-like motif; also called CCWH2; source: synthetic peptide (GL Biochem)
Usually Kd stands for a measure of binding affinity in units of concentration. Low readings indicate tighter binding, high ones weaker binding. With B1, the affinity in series [1], expressed as Kd, was 16.5 ± 4.53 µM.

B2: MBP-EHWH2-msfGFP (domain or fragment)
chain: B1 peptide
notes: XopR of Xcc, EHWH2 stretch; also called chimeric protein EHWH2; source: E. coli BL21 (DE3) Rosetta, purified; not shown: MBP, N-terminal, kept; msfGFP, C-terminal, kept
Regarding B2, the affinity in series [2], expressed as Kd, was 1000 ± 60 nM.

B3: MBP-HH-msfGFP (domain or fragment)
chain: SLRRLDLQLEEITRQCSDIQKQLFMEDRE
notes: XopR of Xcc, HH motif; also called chimeric protein HH; source: E. coli BL21 (DE3) Rosetta, purified; not shown: MBP, N-terminal, kept; msfGFP, C-terminal, kept
In series [2], B3 had a dissociation constant (Kd) of 1270 ± 50 nM.

B4: Xcc XopR-FL (aa 1-411) (natural protein)
chain: MRLSQLFNSRHRVAPEPHGANPNKTTPLIPGASPQHPLSQAPKSTTSQGASKSHRGMLASARKSLASLRKQLPLTCMGSSPTLETVESPPAHTAAVTPGRTQQQHGTQARVDQRWQPPVPNATDHERVQRPQPQPQQTPPTRQSMSVPPKPARAQQLHGPQRPVDPRMQPPIPERMRRDEGQPPQHDKPASPPVPITPAQSSLPSPRPQPGRQPSLRRLDLQLEEITRQCSDIQKQLFMEDREATPQEQHLLKTRAALIAWRNEVRDSQLEALLVALAPMEDIRAPRTTSSGLAMVQMDAMQHNRREVLKARRKSVDRAALARNYARAQRRLESLKQGDAPKEQIRRLQRMMQGYQNMLALEQIVRSTDDQLERLGAPRLMSGIPTTAEQRRQSFEKERDAHQEAIDNGYY
notes: type III effector XopR of Xanthomonas campestris pv. campestris (Xcc) strain 8004, aa 1-411; The methods list a C-terminal His6-Flag form and a C-terminal mRuby2-His6-Flag form; also called full-length XopR; XopR full-length; source: E. coli BL21 (DE3) Rosetta, purified (HisTrap, gel filtration)
Usually stoichiometry N stands for the number of molecules, sites or subunits per partner or assembly. With B4, the “stoichiometry N” value in series [3] came out at 3.

B5: HH peptide (peptide)
peptide: SLRRLDLQLEEITRQCSDIQKQLFMEDRE
notes: XopR of Xcc, HH motif (extended helix and WH2 alpha-helix); also called CC; CC peptide; source: synthetic peptide (GL Biochem)
In series [1], B5 registered a Kd of 73.9 ± 63 µM.

B6: WH2 peptide (peptide)
peptide: QCSDIQKQLFMEDREATPQEQHLLKTRAA
notes: XopR of Xcc, WH2-like motif without the extended helix; source: synthetic peptide (GL Biochem)
B6 yielded an equilibrium dissociation constant (Kd) in series [1] of more than 100 µM.
